Among the data in publication doi:10.1101/2023.05.08.539884 are dH and stoichiometry N values, retold here.

Experiment [1] deals with UBR4_(4730-5183) (human) (UniProt Q5T4S7). The experiment is described as follows: ITC.
The target is the same in experiment [2]. Kind of experiment: ITC. The source holds these as a separate data set. Background: ITC needs no label: the signal is the heat of the interaction.

Read-outs that look alike come from different tables or passages of the source.

Chain of UBE2A (P49459 whole entry): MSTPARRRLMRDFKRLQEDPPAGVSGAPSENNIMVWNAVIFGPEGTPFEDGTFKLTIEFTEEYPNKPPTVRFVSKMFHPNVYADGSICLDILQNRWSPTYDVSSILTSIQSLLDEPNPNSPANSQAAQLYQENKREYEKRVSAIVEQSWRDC
Chain of UBR4_(4730-5183) (human) (Q5T4S7 4730-5183): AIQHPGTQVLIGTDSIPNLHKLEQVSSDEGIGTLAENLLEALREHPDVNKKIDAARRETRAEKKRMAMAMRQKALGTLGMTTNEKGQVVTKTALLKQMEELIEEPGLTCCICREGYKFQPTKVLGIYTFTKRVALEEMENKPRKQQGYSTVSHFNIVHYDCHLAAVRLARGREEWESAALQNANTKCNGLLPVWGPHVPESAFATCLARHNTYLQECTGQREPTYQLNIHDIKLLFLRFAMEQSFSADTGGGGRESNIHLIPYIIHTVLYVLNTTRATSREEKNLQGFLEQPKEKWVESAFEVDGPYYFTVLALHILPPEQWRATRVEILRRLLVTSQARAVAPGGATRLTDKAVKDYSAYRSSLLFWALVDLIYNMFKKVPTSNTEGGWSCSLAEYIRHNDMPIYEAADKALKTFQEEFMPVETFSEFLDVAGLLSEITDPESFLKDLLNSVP

As usually defined, the stoichiometry N is the number of molecules, sites or subunits per partner or assembly. As for “UBE2A (from UniProt P49459 1-152) (enzyme)”, in the experiment with UBR4_(4730-5183) (human) [1], the dH was -7.37 kcal/mol and the stoichiometry N worked out at 0.904. The stoichiometry N with UBR4_(4730-5183) (human) [2] was found to be 1.
